Source: patent US20240317834A1, “COMPOSITIONS AND METHODS FOR NEUROLOGICAL DISEASES” (CODA BIOTHERAPEUTICS, INC., priority 2020, published 2024)

Legend:
Lenti-X 293T cells = test: YFP fluorescence quenching anion reporter plate reader assay of engineered receptors stimulated with acetylcholine or a non-native ligand; format: cell-based
How it was run: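 YFP quench was followed for about 1 min 43 s after ligand delivered in iodide-based ECS, pH 7.2. Values are end-of-read fluorescence (last 10 s) divided by the pre-ligand baseline (15 s). Cells were LX293T, transfected with receptor DNA a day before the assay.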

HEK293T cells = test: High throughput electrophysiology (IonFlux automated patch clamp), EC50 of engineered receptors to ligands; format: cell-based
Procedure: To confirm the EC50s determined by plate reader as well as develop a better understanding of maximum current flow, the engineered receptors were subjected to high throughput electrophysiology system, as described below. For HEK293T studies, cDNAs encoding ion channels were cloned into pcDNA3.1 using standard recombination techniques. HEK293T cells from Clontech (Lenti-X™ 293T Cell Line) were cultured in DMEM supplemented with 10% FBS and 1% Pen/Strep to 40-50% confluence using standard cell culture protocols, transfected with ion channel plasmids at a concentration of 18 μg per 15 cm dish using Fugene 6, and grown for an additional 24 hours. Cells were then assayed on an electrophysiological system (IonFluxHT and/or Mercury, Fluxion Biosciences) in which dose-response relationships may be assessed through a microfluidics-based platform for establishing whole cell configurations. Ensemble plates were primed with extracellular buffer (140 mM NaCl, 5 mM KCl, 2 mM CaCl2), 1 mM MgCl2, 10 mM HEPES, and 10 mM glucose, pH 7.2 with NaOH, mOsm 310), intracellular buffer (145 mM CsCl, 2 mM CaCl2), 2 mM MgCl2, 10 mM HEPES, and 10 mM EGTA, pH 7.2 with CsOH, mOsm 305), as adapted from Lynagh and Lynch, and test compounds (stocks prepared fresh) diluted in extracellular buffer. Cells were then released from the plate with Accutase, centrifuged, resuspended in extracellular buffer, and loaded into Ensemble plates. Cells were then subjected to a standard protocol for priming, trapping, breaking, and establishing whole cell configuration, with cells held at −60 mV throughout the recording. After recording baseline, progressive doses of test compounds were applied using the IonFlux software to assess dose response relationships. Data were then analyzed off-line using custom Python scripts to convert data to .csv format, re-plot traces, and apply QC measurements to reject unstable recordings (i.e. thresholding based on access resistance and/or standard deviation in baseline, as well as artifact rejection). Peak currents were then calculated, and population data were fit using a 4-parameter logistic equation as described by the Hill Equation. Currents were measured on an automated patch clamp system (Fluxion Biosciences) following 1 second addition of drug and the EC50 values calculated are tabulated below in Table 22 below and Table 21 above (in Example 2).

B1: CODA536: engineered chimeric LGIC receptor, L131D, S172D in SEQ ID NO: 33 (protein)
chain: MRCSPGGVWLALAASLLHVSLQGEFQRKLYKELVKNYNPLERPVANDSQPLTVYFSLSLLQIMDVDEKNQVLTTNIWLQMSWTDHYLQWNVSEYPGVKTVRFPDGQIWKPDILLYNSADERFDATFHTNVDVNSSGHCQYLPPGIFKSSCPMDLKNFPMDVQTCKLKFGSWDYGGWSLDLQMQEADISGYIPNGEWDLVGIPGKRSERFYECCKEPYPDVTFTVTMRRRMGYYLIQMYIPSLLIVILSWISFWINMDAAPARVGLGITTVLTMTTQSSGSRASLPKVSYVKAIDIWMAVCLLFVFSALLEYAAVNFVSRQHKELLRFRRKRRHHKSPMLNLFQEDEAGEGRFNFSAYGMGPACLQAKDGISVKGANNSNTTNPPPAPSKSPEEMRKLFIQRAKKIDKISRIGFPMAFLIFNMFYWIIYKIVRREDVHNQ
modifications: synthetic sequence of chimeric LGIC
YFP fluorescence quenching using TC-5619/Bradanicline (Lenti-X 293T cells; 1 nM brd): −1.24%
YFP fluorescence quenching using TC-5619/Bradanicline (Lenti-X 293T cells; 3 nM brd): 0.25%
YFP fluorescence quenching using TC-5619/Bradanicline (Lenti-X 293T cells; 10 nM brd): −2.57%
YFP fluorescence quenching using TC-5619/Bradanicline (Lenti-X 293T cells; 30 nM brd): 0.78%
YFP fluorescence quenching using Facinicline (Lenti-X 293T cells; 30 nM fac): 24.15
YFP fluorescence quenching using ABT-126 (Lenti-X 293T cells; 50 nM abt): −3.19%
YFP fluorescence quenching using CNL002 (Lenti-X 293T cells; 100 nM CNL002): 71.72%
YFP fluorescence quenching using ABT-126 (Lenti-X 293T cells; 100 nM abt): 7.58%
YFP fluorescence quenching using AZD-0328 (Lenti-X 293T cells; 100 nM azd0328): 51.44%
YFP fluorescence quenching using TC-5619/Bradanicline (Lenti-X 293T cells; 100 nM brd): 4.51%
YFP fluorescence quenching using ABT-126 (Lenti-X 293T cells; 300 nM abt): −1.65%
YFP fluorescence quenching using AZD-0328 (Lenti-X 293T cells; 300 nM azd0328): 77.12%
YFP fluorescence quenching using TC-5619/Bradanicline (Lenti-X 293T cells; 300 nM brd): 30.97%
YFP fluorescence quenching using Facinicline (Lenti-X 293T cells; 300 nM fac): 80.17
YFP fluorescence quenching using CNL002 (Lenti-X 293T cells; 1 uM CNL002): 77.26%
YFP fluorescence quenching using ABT-126 (Lenti-X 293T cells; 1 uM abt): 31.29%
YFP fluorescence quenching using TC-5619/Bradanicline (Lenti-X 293T cells; 1 uM brd): 44.41%
YFP fluorescence quenching using TC-6987 (Lenti-X 293T cells; 1 uM tc6987): −18.24
YFP fluorescence quenching using Facinicline (Lenti-X 293T cells; 10 uM fac): 81.34
YFP fluorescence quenching using TC-6987 (Lenti-X 293T cells; 10 uM tc6987): −23.06
YFP fluorescence quenching using CNL002 (Lenti-X 293T cells; 30 uM CNL002): 77.5%
YFP fluorescence quenching using AZD-0328 (Lenti-X 293T cells; 30 uM azd0328): 79.26%
YFP fluorescence quenching using Facinicline (Lenti-X 293T cells; 30 uM fac): 79.9
YFP fluorescence quenching using TC-6987 (Lenti-X 293T cells; 500 uM tc6987): −19.3
percent quench of YFP fluorescence, 30 nM TC-6683 (Lenti-X 293T cells; TC-6683 30 nM): −22.285%
percent quench of YFP fluorescence, 300 nM TC-6683 (Lenti-X 293T cells; TC-6683 300 nM): −23.926%
percent quench of YFP fluorescence, 3 uM TC-6683 (Lenti-X 293T cells; TC-6683 3 uM): −20.514%
percent quench of YFP fluorescence, 30 uM TC-6683 (Lenti-X 293T cells; TC-6683 30 uM): −3.078%
percent quench of YFP fluorescence, 100 uM TC-6683 (Lenti-X 293T cells; TC-6683 100 uM): 7.37%
percent quench of YFP fluorescence, 10 uM ach (Lenti-X 293T cells; acetylcholine 10 uM): −12.91%
percent quench of YFP fluorescence, 100 uM ach (Lenti-X 293T cells; acetylcholine 100 uM): −20.88%
percent quench of YFP fluorescence, 1 mM ach (Lenti-X 293T cells; acetylcholine 1 mM): 79.85%
percent quench of YFP fluorescence, 3 mM ach (Lenti-X 293T cells; acetylcholine 3 mM): 79.98%
fold increased potency towards AZD-0328 compared with wild type receptor (HEK293T cells; ligand AZD-0328): at least 10 fold
fold increased potency towards RG-3487 compared with wild type receptor (HEK293T cells; ligand RG-3487): at least 10 fold
